Results: patent US20240327500A1 (NATIONAL UNIVERSITY OF SINGAPORE, published 2024)
No end group written: not given here.

T1: HBsAg loop 2 linear peptide (Hepatitis B virus, not fully specified; cysteine pairing not given here)
T1 construct: The peptide is printed with alternative residues at one position
T1 peptide: CTKPTDGNCT

T2: HBsAg loop 1 linear peptide (Hepatitis B virus, not fully specified; cysteine pairing not given here)
T2 construct: The peptide is printed with alternative residues at two positions
T2 peptide: TCTTPAQGNSMFPSC


Key:
HBV virions (Genotype D) = HBV virions (Genotype D) (Hepatitis B virus genotype D); assay: cell-based or functional assay
[1] = biological target: T1, HBsAg loop 2 linear peptide; assay: direct ELISA on coated linear peptide (50 ng/well)
[2] = biological target: T2, HBsAg loop 1 linear peptide; assay: direct ELISA on coated linear peptide (50 ng/well)
HBsAg genotype C (adr) = biological target: T3, HBsAg genotype C (adr) (Hepatitis B virus genotype C (adr), UniProt P30019 1-226); assay: ELISA on HBsAg of four genotypes
T3 construct: the form coated in the ELISA is not described

HBsAg genotype A (adw2) = biological target: T4, HBsAg genotype A (adw2) (Hepatitis B virus genotype A (adw2), UniProt P03141 175-400); assay: ELISA on HBsAg of four genotypes
T4 construct: the form coated in the ELISA is not described

HBsAg genotype B (adw) = biological target: T5, HBsAg genotype B (adw) (Hepatitis B virus genotype B (adw), UniProt Q9PWW3 175-400); assay: ELISA on HBsAg of four genotypes
T5 construct: the form coated in the ELISA is not described

recombinant small-HBsAg = biological target: T6, recombinant small-HBsAg (Hepatitis B virus); assay: QCM (Attana Cell A200), rHBsAg amine-coupled on chip, 25 C
T6 construct: also called recombinant HBsAg; rHBsAg

| Binder | EC50, in-vitro neutralization (HBeAg data) (HBV virions (Genotype D)) [nM] | binding result [1] | binding result [2] | binding result (HBsAg genotype C (adr)) | binding result (HBsAg genotype A (adw2)) | binding result (HBsAg genotype B (adw)) | Kd (recombinant small-HBsAg) [nM] |
| --- | --- | --- | --- | --- | --- | --- | --- |
| mAb006-11-IgG4 (antibody, V domains shown) VH: QLQLQESGPGLVKPSETLSLTCTVSGGSMNINDYYWDWVRLSPGKGLEWIGAIYSSGTTYYNPSLKSRVTISVDMSKDQFSLRLSSVTAADTAVYYCVRDGPHRLYYGSGTYYNPRGGYYSYALDVWGQGTTVIV VL: QLVLTQSPSASASLGASVKLTCTLSSGHGTYAIAWHQLRSEKGPRYLMKVNSDGSHIKGDGIPDRFSGSSSGAERYLIISSLQSEDEADYYCQTWGTGIVIFGGGTKLTVL | 0.242 |  |  |  |  |  |  |
| mAb006-11-IgG2 (antibody, V domains shown) VH: QLQLQESGPGLVKPSETLSLTCTVSGGSMNINDYYWDWVRLSPGKGLEWIGAIYSSGTTYYNPSLKSRVTISVDMSKDQFSLRLSSVTAADTAVYYCVRDGPHRLYYGSGTYYNPRGGYYSYALDVWGQGTTVIV VL: QLVLTQSPSASASLGASVKLTCTLSSGHGTYAIAWHQLRSEKGPRYLMKVNSDGSHIKGDGIPDRFSGSSSGAERYLIISSLQSEDEADYYCQTWGTGIVIFGGGTKLTVL | 1.32 |  |  |  |  |  |  |
| mAb006-11-IgG1 (antibody, V domains shown, also called mAb11; mAb006-11G1) VH: QLQLQESGPGLVKPSETLSLTCTVSGGSMNINDYYWDWVRLSPGKGLEWIGAIYSSGTTYYNPSLKSRVTISVDMSKDQFSLRLSSVTAADTAVYYCVRDGPHRLYYGSGTYYNPRGGYYSYALDVWGQGTTVIV VL: QLVLTQSPSASASLGASVKLTCTLSSGHGTYAIAWHQLRSEKGPRYLMKVNSDGSHIKGDGIPDRFSGSSSGAERYLIISSLQSEDEADYYCQTWGTGIVIFGGGTKLTVL | 12.6 | no binding | no binding | binds | binds | binds | 22.7 |
| mAb006-11-IgG3 (antibody, V domains shown) VH: QLQLQESGPGLVKPSETLSLTCTVSGGSMNINDYYWDWVRLSPGKGLEWIGAIYSSGTTYYNPSLKSRVTISVDMSKDQFSLRLSSVTAADTAVYYCVRDGPHRLYYGSGTYYNPRGGYYSYALDVWGQGTTVIV VL: QLVLTQSPSASASLGASVKLTCTLSSGHGTYAIAWHQLRSEKGPRYLMKVNSDGSHIKGDGIPDRFSGSSSGAERYLIISSLQSEDEADYYCQTWGTGIVIFGGGTKLTVL | 1.05 |  |  |  |  |  |  |
